Experiments:
[1] = biological target: T. congolense fructose-1,6-bisphosphate aldolase, wild type (Trypanosoma congolense); test: SEC; analytical SEC of TcoALD alone; Superdex 200 HR 10/30, 50 mM MES, 500 mM NaCl, pH 6.7; calibrated with the Bio-Rad standard
[2] = biological target: T. congolense fructose-1,6-bisphosphate aldolase, wild type (Trypanosoma congolense); test: crystal structure; (Nb474-TcoALD)4 complex, His tags of both retained; 100 mM sodium cacodylate pH 6.5, 200 mM magnesium acetate, 10% PEG 8000, 20°C; 2.57 Å
[3] = biological target: T. congolense fructose-1,6-bisphosphate aldolase, wild type (Trypanosoma congolense); test: SEC; analytical SEC of 1 mg TcoALD mixed with Nb474 at Nb474:TcoALD ratios 1:4, 2:4, 3:4, 4:4, 6:4, incubated at least 1 h; Superdex 200 HR 10/30, 50 mM MES, 500 mM NaCl, pH 6.7; peaks analysed by SDS-PAGE
[4] = biological target: T. congolense fructose-1,6-bisphosphate aldolase A77E mutant (Trypanosoma congolense); test: SPR; SPR sandwich assay: immobilised Nb474 on CM5 saturated with a TcoALD variant, then Nb474 (0.5 nM to 1.0 uM) injected as second analyte; 20 mM HEPES, 150 mM NaCl, 0.005% Tween, 3.4 mM EDTA, pH 7.4; 1:1 Langmuir model for WT and A77E

Molecule	stoichiometry N [1]	stoichiometry N [2]	stoichiometry N [3]	Kd [4] [nM]	koff [4] [s⁻¹]	kon [4] [M⁻¹ s⁻¹]	stoichiometry N (Nb474 per TcoALD monomer) [3]
T. congolense fructose-1,6-bisphosphate aldolase, wild type (enzyme)	2	4	4				
Nanobody Nb474, C-terminally His-tagged (VHH) VHH: QVQLQESGGGLVQPGGSLRLSCAASETALTYYAIGWFRQAPGKEREGVSCISRINSGSGARTDYADSVKGRFTISRDDAKNTVTLQMNSLEPEDTARYYCALDTTDRYDSANGRYYCTISSDTYDYWGQGTQVTVSS				0.067	0.000141	2.11e+06	1

— PMC5617235
